These results are taken from PMC2988884 (Nature structural & molecular biology, 2010).

The chains are these.
B3: Trs130 (natural protein, S. cerevisiae (endogenous in yeast), UniProt Q03660 1-1102, looked up)
chain: MDKEIYCGSVPVSYFDPFDLFESLRPEFQQILPLDNIHWKAFDGTVRTVNRLPIELIPEGRGEADKSNDEQPFIRFLIVNCISIDQYRAKVRPLVRQWLPNLESVSSSTGEKMIYKPIILLYANSEVVDSNLFKSVSLMEKFGKDFPHVQTLEVRSVYRSPKERQEFWNQFSQKIKASVLSIFQKRLTHLQHSLANLQKGNNFEEQLLTREKLYELYVVFNILEDASLELQKIKKEILRRNMNMPDGKLQVPFESSSKSDESLGSIIIEGTLDKFQLHKYFFIRRLRLLKLEDQTLTAFVGAFQLIKNFIESISIEYRKSVRLLEFKHYFITSMLSYFEFENVSNPLLCEIKAELLMLKRDNWVQGVMATSGYRLMDKNYPNSDVKYKFDLLKETFVDETVFQENFLTLTKEILSLFNKCEGKRQRIVDILSIEIGLLYYQGKKYEEAVSLFLSCYEYYTQTNWNSIGLKILQVFIDSLSHCPKLDVLQIDGESVSASAVLTNAFLNILKLCKDNDSKEIWWKKFMDLQMKNNIHLMYPLDGLFEVTLNSKVHLARANVSAIEVNLKSYGFPEDISTKTMRLSLKNMGGDVIVFGASDFLLKKGENKLILECRDIMYGEFSLLSFEIIVEGITFVKEFPENQDEFIVVPEIYCKESTKVLVKQAHNLNLGEYALELKSVQSDALESLQVEVEVQKNIGNMKNLPVSFSMDEIQARKRYNTPFENVRLEYYLLDQITAFDLIIKTSFTKKNDQGTFGETKKVRIQCYLQLSVSVEDIFKKDIFFFKFLLNSSVREEPVILYSSELSAPDTRNDYNIRGDYIATTPALITFDGNESFINCYEITANNNFDSKDIFNLKVRYNTLKEQLDCFITDAVLIEGDVEWFILFEKWKTFWELEILKKLKYDYDAFKENRIIRLLKTSIDLNKTKSKIRNLCIEKAVLDKILICLNKVSRGIAVCNTDMDEYVRNLVPKQLTVPVQLPGFEQFFHVQFEQMETSHDALHDTIATIGNSLSYTVIVENLSGQWGQDVIDDGGYIFEILSSNEWLIHGQKRCAIKEKRKEFEVHLIPLKKGYLNFPRVEITNINGKSCRVDHSNAFESILIF

The assay “Trs130” concerns the target B3. Briefly: single-particle EM.
The target in assay [1] is T1, Trs120 with a C-terminal TAP tag (Trs120-TAP) (S. cerevisiae (endogenous in yeast), UniProt Q04183 1-1289).
T1 sequence (looked up): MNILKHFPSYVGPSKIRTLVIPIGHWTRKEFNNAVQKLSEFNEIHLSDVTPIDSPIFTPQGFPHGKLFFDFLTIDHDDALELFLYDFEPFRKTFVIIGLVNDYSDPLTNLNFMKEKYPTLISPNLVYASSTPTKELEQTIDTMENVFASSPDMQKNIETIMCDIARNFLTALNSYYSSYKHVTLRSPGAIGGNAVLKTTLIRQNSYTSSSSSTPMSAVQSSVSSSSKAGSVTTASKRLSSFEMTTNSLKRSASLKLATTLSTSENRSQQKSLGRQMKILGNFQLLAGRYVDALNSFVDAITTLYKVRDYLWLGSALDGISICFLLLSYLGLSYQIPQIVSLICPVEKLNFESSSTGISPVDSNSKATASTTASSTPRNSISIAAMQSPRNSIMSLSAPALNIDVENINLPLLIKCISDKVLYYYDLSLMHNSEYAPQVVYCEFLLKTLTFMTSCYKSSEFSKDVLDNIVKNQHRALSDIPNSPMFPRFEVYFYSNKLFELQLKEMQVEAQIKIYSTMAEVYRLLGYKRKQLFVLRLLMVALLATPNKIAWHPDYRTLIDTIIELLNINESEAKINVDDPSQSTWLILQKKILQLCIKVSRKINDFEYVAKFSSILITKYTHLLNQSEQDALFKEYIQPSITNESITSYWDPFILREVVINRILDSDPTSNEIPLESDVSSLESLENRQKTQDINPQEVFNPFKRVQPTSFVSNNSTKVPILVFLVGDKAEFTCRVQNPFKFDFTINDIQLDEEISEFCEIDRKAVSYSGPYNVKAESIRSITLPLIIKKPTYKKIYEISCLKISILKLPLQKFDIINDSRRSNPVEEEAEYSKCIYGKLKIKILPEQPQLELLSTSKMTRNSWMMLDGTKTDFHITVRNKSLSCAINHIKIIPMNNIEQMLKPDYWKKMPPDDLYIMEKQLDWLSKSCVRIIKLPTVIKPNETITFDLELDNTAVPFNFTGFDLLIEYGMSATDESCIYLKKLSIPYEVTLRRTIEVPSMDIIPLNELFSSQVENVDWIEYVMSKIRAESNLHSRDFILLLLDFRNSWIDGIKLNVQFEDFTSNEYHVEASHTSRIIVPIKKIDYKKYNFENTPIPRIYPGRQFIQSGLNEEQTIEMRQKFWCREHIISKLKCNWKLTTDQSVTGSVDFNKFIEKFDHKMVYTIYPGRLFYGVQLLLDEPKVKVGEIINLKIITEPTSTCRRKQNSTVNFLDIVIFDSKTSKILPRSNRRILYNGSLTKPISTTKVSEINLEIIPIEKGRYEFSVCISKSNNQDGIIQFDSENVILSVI
Briefly: single-particle EM.

B1: Trs20 (natural protein, S. cerevisiae (endogenous in yeast), UniProt P38334 1-175, looked up)
chain: MPQYFAIIGKKDNPVYEIEFTNAENPQGFPQDLKELNPFILHASLDIVEDLQWQINPTSQLNGNGGNGSNGGGGFLRSRAVNNTDNCYLGKVDHFYGLAITAYISYSGMKFVMIHGNSANSSVVIDDNNMRSFYQEVHELYVKTLMNPFYKITDPIRSPAFDSRVRTLARKHLSK
In the case of B1, the binding result with Trs130 was “binds”.

B2: Bet3 (natural protein, S. cerevisiae (endogenous in yeast), UniProt P36149 1-193, looked up)
chain: MVSTTQSRSLKAMGEEIWKNKTEKINTELFTLTYGSIVAQLCQDYERDFNKVNDHLYSMGYNIGCRLIEDFLARTALPRCENLVKTSEVLSKCAFKIFLNITPNITNWSHNKDTFSLILDENPLADFVELPMDAMKSLWYSNILCGVLKGSLEMVQLDCDVWFVSDILRGDSQTEIKVKLNRILKDEIPIGED
On to B2, for which the binding result in assay [1] is reported as “binds”. Consider B3, for which, in assay [1], the binding result is on record as “binds”.

B4: Trs33 (natural protein, S. cerevisiae (endogenous in yeast), UniProt Q99394 1-268, looked up)
chain: MSSTHSNNVGHPQSSPQGPLTEQQRAQQQYQIFENSLPKVSQSVYQMLLNEMVPLAMGIERQISGDVISSDSNVTSENGNINNMIKRLKIEEHHTVDIIRSHNLIHELYKADEEEKEKVLARLRNIGFQIGLKLSELLIFSNNPNLKFKEMDLLLIMKFICRDVWKQIFGKQIDNLKTNHRGTFYLLDYDYRPIQSFSLEEDAKNEELKMIEPFLEIPVGIIRGVLSSLGYSSEEVICLASFIDRPTDRPKTAFPKGVSFHVQVTMPQ
Take B4: the binding result in assay [1] is recorded as “binds”.
